# Patent USRE50282
# *1 amine or outer side, *2 acyl side, *3 side chain or, on linkers, in order; H or OH if unused. Bridges are numbered along the chain shown (N, C = ends). Primed or numbered codes have the meaning given here. The star is where a group is joined. Biotin = O=C1N[C@H]2[C@H](CS[C@H]2CCCCC(=O)*)N1; Glutaryl = O=C(CCCC(=O)[*:2])[*:1]; HOOC(CH2)6CO = O=C(O)CCCCCCC(=O)*; PEG4′ = not defined here
# B1: Type I(R8K)-DSG-OH, GDDCAYHK(DSG-OH)…-NH2 (peptide)
# peptide: {Biotin-PEG4′}-GDDCAYHK(Glutaryl)GELVWCTFH-NH2
# modifications: disulfide 4-14 (inferred)
# B2: Type I(R8K)-DSS-OH, GDDCAYHK(DSS-OH)…-NH2 (peptide)
# peptide: {Biotin-PEG4′}-GDDCAYHK(HOOC(CH2)6CO)GELVWCTFH-NH2
# modifications: disulfide 4-14 (inferred)
# B3: Type I IgG-binding peptide, …-NH2 (peptide)
# peptide: {Biotin-PEG4′}-GPDCAYHRGELVWCTFH-NH2
# modifications: disulfide 4-14 (inferred)
# B4: Type I(R8K) IgG-binding peptide, …-NH2 (peptide)
# peptide: {Biotin-PEG4′}-GDDCAYHKGELVWCTFH-NH2
# modifications: disulfide 4-14 (inferred)
# Target: human IgG (Chugai Pharmaceutical Co., Ltd.) (human)
# Experiment: SPR (BIAcore T200), IgG immobilised; 1:1 binding fit
row,Kd [nM],Binder
1,315,B1
2,365,B2
3,9.1,B3
4,156,B4

# Target: human IgG (Chugai Pharmaceutical Co., Ltd.) (human)
# Experiment: SPR (BIAcore T200), IgG immobilised; equilibrium value
row,Kd [nM],Binder
1,330,B1
2,389,B2
3,10,B3
4,131,B4

# Target: human IgG (Chugai Pharmaceutical Co., Ltd.) (human)
# Experiment: SPR (BIAcore T200), IgG immobilised
row,fold decrease in affinity against Type I [times],Binder
1,10,B4
